One data set has as its target T1, E. coli GlpT (Escherichia coli, UniProt P08194).
T1 construct: plasmid pBADmycHisB-glpT, expressed in E. coli MC1061, Ni-Sepharose and size exclusion in DDM, coreconstituted with L. sakei ArcD in vesicles; 54 kDa
T1 sequence (P08194 1-452): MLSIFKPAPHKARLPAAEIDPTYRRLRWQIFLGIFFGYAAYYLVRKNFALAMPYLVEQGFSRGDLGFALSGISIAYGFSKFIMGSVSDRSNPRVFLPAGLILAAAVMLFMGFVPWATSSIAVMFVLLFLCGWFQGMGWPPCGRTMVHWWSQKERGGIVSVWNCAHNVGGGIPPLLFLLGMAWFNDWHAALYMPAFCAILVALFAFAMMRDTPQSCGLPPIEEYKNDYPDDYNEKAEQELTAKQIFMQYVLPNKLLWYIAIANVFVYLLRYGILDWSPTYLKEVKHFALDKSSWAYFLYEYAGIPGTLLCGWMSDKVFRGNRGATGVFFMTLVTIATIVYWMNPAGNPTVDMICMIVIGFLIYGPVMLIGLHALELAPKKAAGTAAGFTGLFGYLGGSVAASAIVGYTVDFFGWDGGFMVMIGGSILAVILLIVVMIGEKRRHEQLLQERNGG
Kind of data set: GlpT-dependent export from feeder vesicles, read by LC-MS of DOPA formed in utilizer vesicles. In kind it is biochemical. The settings on record: antiport with external Pi, 50 mM KPi pH 7.0, 30 °C; indirect read-out.

Substrate in data set [1]: N=C(N)NCCC[C@H](N)C(=O)O
Kind of data set: cells, lysate or membranes. The settings on record: pH 7.0; 20.0 °C.

Substrate in data set [2]: N=C(N)NCCC[C@H](N)C(=O)O
Kind of data set: cells, lysate or membranes. More on the design: species or system L. lactis JP9000 ΔarcD1ΔarcD2; Radiolabeled L-arginine uptake in L-ornithine-loaded whole cells, filtration and scintillation counting. To be noted: pH 7.0; 20.0 °C. Here is the method: The arcD and arcE genes were cloned into nisin A-based expression vectors and flanked by a 10× His-tag at either the N- or the C-terminus. The constructs were transformed into L. lactis JP9000 ΔarcD1ΔarcD2[24] and the expression was optimized. […] All of these proteins were tested for L-arginine transport activity in vivo (Figure S4). […] By assuming a similar level of expression as the original ArcD2, ArcD from L. sakei would have a 10-fold higher turnover number and was therefore chosen for further in vitro characterization (Table S4). The genes encoding arcD/E were PCR-amplified from the source DNA templates with Phusion high-fidelity DNA polymerase (Thermo Fisher Scientific) and customized primers (Eurofins Genomics, Table S3). Next, fragment exchange (FX)[36] was exploited to clone the genes of interest into pNZ-N(His) or pNZ-C(His) vectors suitable for overexpression in L. lactis strains. According to the procedure, the PCR amplification products were first cloned into a sequencing vector (pINITIAL). To this end, both the insets and the backbone (1:5 molar ratio) were digested with 2.5 U of SapI (New England Biolabs) for 1 h at 37 °C, followed by a heat inactivation step at 60 °C for 20 min. Ligation was carried out by adding 5 U of T4 ligase (New England Biolabs) and incubating for 1 h at RT. […]

Substrate in data set [3]: N=C(N)NCCC[C@H](N)C(=O)O
Kind of data set: radiolabelled uptake into L-ornithine-loaded proteoliposomes, Michaelis-Menten fit. To be noted: 50 mM KPi pH 7.0, 2 mM DTT, 30 °C, internal L-ornithine 10 mM, external L-arginine 1-100 μM, labelled compound. The class given is biochemical, Latilactobacillus sakei. Here is the method:
radiolabelled uptake into L-ornithine-loaded proteoliposomes, Michaelis-Menten fit on L. sakei ArcD | the affinity constant (KM) and turnover number (kcat) were determined for the L. sakei antiporter

The text below walks through data of publication PMC11106768, “Synthetic Vesicles for Sustainable Energy Recycling and Delivery of Building Blocks for Lipid Biosynthesis” (ACS Synthetic Biology, 2024).

By Km is commonly meant the concentration of substrate that gives half-maximal velocity. As usually defined, the kcat is the maximal rate divided by the concentration of active sites.

As to `O=P(O)(O)OC[C@H](O)CO` [glycerol 3-phosphate], the “GlpT-dependent export from feeder vesicles, read by LC-MS of DOPA formed in util” value on E. coli GlpT is listed as “only when the feeder vesicles were equipped with the glycerol 3-phosphate exporter GlpT”.

B1: P. aeruginosa ArcD (Pseudomonas aeruginosa PAO1) (protein)
chain: MSQESSQKLRLGALTALVVGSMIGGGIFSLPQNMAASADVGAVLIGWAITAVGMLTLAFVFQTLANRKPELDGGVYAYAKAGFGDYMGFSSAWGYWISAWLGNVGYFVLLFSTLGYFFPIFGKGDTVAAIVCASVLLWALHFLVLRGIKEAAFINTVTTVAKVVPLFLFILICLFAFKLDIFTADIWGKSNPDLGSVMNQVRNMMLVTVWVFIGIEGASIFSSRAEKRSDVGKATVIGFITVLLLLVLVNVLSMGVMTQPELAKLQNPSMALVLEHVVGHWGAVLISVGLLISLLGALLSWVLLCAEIMFAAAKDHTMPEFLRRENANQVPANALWLTNICVQVFLVVVFFTSGDPDGMDPYTKMLLLATSMILIPYFWSAAYGLLLTLKGETYENDARERSKDLVIAGIAVAYAVWLLYAGGLKYLLLSALLYAPGAILFAKAKHEVGQPIFTGIEKLIFAAVVIGALVAAYGLYDGFLTL
B1: the Michaelis-Menten constant (Km) in data set [1] came out at 7.5 µM.

B2: L. sakei ArcD (Latilactobacillus sakei) (protein)
chain: MTEEKPAKKIGLLALIALVISSSIGSGVFGLTSDLASASAPGPVLIAWVIVGFGILMLALSLNNLLMKEPELEGIFSYAEKGFGPFAGFISGWGYWLSAWLGNVTFATILMSALGYFFPIFKSRQNLPSILVASVLSWSLTYFVNRGVEGAAAINTLVTICKLIPLFVFIIFGIVLFKGHLFTQAFWNNMSSSFVAGDVMSQIKNCMMVMMWVFVGIEGASMLSARAEKKSDAGKATILGLVSLLAIYILASVLPYGYLTQDQLASIKQPAMLYIFEQMVGTWGGYFIGVGLIISILGAWLSWTMLPAETMLLMAKQNLLPAYFGRVNKKKAPTFALVVTAGLIQVFLFTLLFTTKAYNFAYSLCTASIIVCYMLVAAYQIKYSWAHLQEKGNRQQLLIGVLALLFEIAGILMAGVSYLLLCFIAYIPGIYFYGRARKNNGHQHFLSKGEWLITTIIVIGAIIGIWLVVSGKIVI
notes: N-terminal 10x His-tag (plasmid pNZarcD-LS), expressed in L. lactis JP9000 delta-arcD1 delta-arcD2, purified in DDM, reconstituted in DOPE/DOPG/DOPC liposomes; 54 kDa
As for B2, the Km in data set [2] was determined as 26.8 µM. Also, in data set [3], the Km amounted to 12.2 ± 1.5 µM and the kcat amounted to 5.8 ± 1.2 s⁻¹.
